Measured values taken from publication PMC8885419, “Identification and mechanism of G protein-biased ligands for chemokine receptor CCR1” (Nature Chemical Biology, 2021).

B1: CCL15 (26–92) (ligand, human, UniProt Q16663 47-113, looked up)
chain: FHFAADCCTSYISQSIPCSLMKSYFETSSECSKPGVIFLTKKGRQVCAKPSGPGVQDCMKKLKPYSI
notes: chemokine CCL15, human, residues 26–92 of CCL15 (1–92), first residue F26; also called CCL15^L; long form CCL15; source: SF9 insect cells, expressed fused to the N terminus of CCR1, cut with TEV protease, purified in the complex
B2: CCL15 (27–92) (ligand, human, UniProt Q16663 48-113, looked up)
chain: HFAADCCTSYISQSIPCSLMKSYFETSSECSKPGVIFLTKKGRQVCAKPSGPGVQDCMKKLKPYSI
notes: chemokine CCL15, human, residues 27–92 of CCL15 (1–92); In the cryo-EM sample residues of the GS/TEV linker may remain at the C terminus; also called CCL15^M; medium form CCL15; source: SF9 insect cells, expressed fused to the N terminus of CCR1, cut with TEV protease, purified in the complex

Columns and labels:
β-arrestin2 (βarr2) = experiment: β-arrestin2 recruitment dose-response (method not named for this panel; panel d of the same figure is NanoBiT); conditions: agonist CCL15M (CCL15 27-92) at 1e-6 M (highest dose); parent: est. 100; read off a plot
[1] = biological target: T1, wild-type full-length human CCR1 fused with LgBiT at the C terminus (cryo-EM construct) (human, UniProt P32246 1-355); experiment: cryo-EM structure; CCL15-bound CCR1–Gi complexes (CCL15^L, CCL15^M); chemokine expressed fused to CCR1 and cut with TEV; co-expressed with Gi in SF9; NanoBiT tethering of CCR1-LgBiT and Gβ1-SmBiT; scFv16 added; 20 mM HEPES pH 7.5, 100 mM NaCl, LMNG/CHS/GDN; conditions: both partners purified
T1 construct: chemokine receptor CCR1, human, wild type, full length; Expressed with a chemokine (CCL15 (26–92), CCL15 (27–92), or CCL3 (4–69) for the apo complex) fused to its N terminus by a GS linker with a TEV site; the linker was cut with TEV protease and 2*MBP removed with 3C protease; Also used here as the target of the functional rows on wild-type CCR1 in cells, whose construct for the G protein …
T1 sequence (looked up): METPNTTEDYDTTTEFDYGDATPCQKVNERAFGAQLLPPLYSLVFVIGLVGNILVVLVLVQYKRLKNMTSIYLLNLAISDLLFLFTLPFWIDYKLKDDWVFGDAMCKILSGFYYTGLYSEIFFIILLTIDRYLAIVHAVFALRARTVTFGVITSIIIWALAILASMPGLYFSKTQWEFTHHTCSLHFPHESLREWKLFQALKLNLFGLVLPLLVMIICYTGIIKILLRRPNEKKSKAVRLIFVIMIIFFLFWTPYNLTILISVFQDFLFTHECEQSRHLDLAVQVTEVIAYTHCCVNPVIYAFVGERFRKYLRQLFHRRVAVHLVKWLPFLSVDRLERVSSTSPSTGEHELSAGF

Row | Molecule | percent of parent (% wild-type/CCL15M max) (β-arrestin2 (βarr2)) | binding result [1]
1 | CCR1 (1–327 aa) with LgBiT at the C terminal (from UniProt P32246) T86A; W90A | 81 | 
2 | CCR1 (1–327 aa) with LgBiT at the C terminal (from UniProt P32246) Y113F; Y255F | 85 | 
3 | B1 |  | binds
4 | B2 |  | binds
